According to US20250282868A1 (ITEOS BELGIUM, published 2025):

T1: human TREM2 (human, UniProt Q9NZC2 19-230)
T1 construct: on THP-1 WT cells and M2a-like macrophages (endogenous) and on CHO or HEK293T cells overexpressing human TREM2 with DAP12; also called hTREM2
T1 sequence: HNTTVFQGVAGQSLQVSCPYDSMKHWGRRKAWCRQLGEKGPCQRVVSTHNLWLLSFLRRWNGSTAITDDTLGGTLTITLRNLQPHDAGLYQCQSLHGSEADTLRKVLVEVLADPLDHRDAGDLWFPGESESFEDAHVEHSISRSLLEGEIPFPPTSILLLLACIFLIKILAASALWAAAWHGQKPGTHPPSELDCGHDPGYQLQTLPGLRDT

T2: cynomolgus TREM2 (cynomolgus, UniProt A0A2K5UY34 49-260)
T2 construct: also called cynoTREM2; cTREM2
T2 sequence: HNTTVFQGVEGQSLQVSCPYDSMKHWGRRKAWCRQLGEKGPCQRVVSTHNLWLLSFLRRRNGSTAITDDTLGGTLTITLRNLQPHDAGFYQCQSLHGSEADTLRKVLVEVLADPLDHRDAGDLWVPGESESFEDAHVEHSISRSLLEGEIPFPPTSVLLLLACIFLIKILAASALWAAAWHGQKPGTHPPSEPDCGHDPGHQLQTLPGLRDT

T3: mouse TREM2 (mouse, UniProt Q99NH8 19-227)
T3 construct: whole, on cells
T3 sequence (looked up): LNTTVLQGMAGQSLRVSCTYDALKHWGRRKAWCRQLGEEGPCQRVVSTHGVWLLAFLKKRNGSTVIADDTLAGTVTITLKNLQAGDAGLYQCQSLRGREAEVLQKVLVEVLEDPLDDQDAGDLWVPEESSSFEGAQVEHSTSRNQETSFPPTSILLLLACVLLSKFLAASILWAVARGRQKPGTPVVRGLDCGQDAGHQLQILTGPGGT


Key:
[1] = target: T1, human TREM2; experiment: flow cytometry, THP-1 WT cells, 10 ug/ml
Method: (§1) In order to test specificity of selected antibodies to TREM2, binding was tested by flow cytometry on THP-1 TREM2 KO (clone, produced using CRISPR technology in house) and on THP-1 WT. Cells were incubated with selected anti-TREM2 antibodies (final concentration of 10 μg/ml) for 30 min at 4° C. After washing, bound antibodies were detected with a secondary anti-human IgG Fc PE-labelled for 30 min at 4° C. Fluorescence intensity was measured by flow cytometry.

[2] = target: T1, human TREM2; experiment: cell-based or functional assay
[3] = target: T1, human TREM2; experiment: flow cytometry, THP-1 WT vs THP-1 TREM2 KO cells, 10 ug/ml
Method: as §1

[4] = target: T2, cynomolgus TREM2; experiment: MFI on CHO cells over-expressing cynoTREM2-DAP12 vs CHO empty vector
Method: (§2) Cross-reactivity of anti-TREM2 antibodies to cynomolgus TREM2 (cynoTREM2) was assessed using CHO over-expressing cynoTREM2-DAP12 (Table 22). Benchmark antibodies, AB52 and PN-37012, were examined for comparison.

[5] = target: T1, human TREM2; experiment: cell-based or functional assay; remark: listed apart in the source
[6] = target: T1, human TREM2; experiment: flow cytometry, M2a-like macrophages, dose-response
Method: (§3) M2a-like macrophages were produced in vitro from monocytes of healthy donors. Briefly, after PBMCs isolation from peripheral blood using Lymphoprep™ gradient, CD14+ cells were purified and seeded in presence of MCSF 50 ng/ml for 6 days. Macrophages were then cultured with IL-13 and IL-4 at a concentration of 20 ng/ml for two additional days and then used for a cell-based binding assay.
(§4) M2a-like macrophages were incubated with anti-TREM2 antibodies (dose-response curve with 11 concentrations from 10 μg/ml to 0.0001 μg/ml) for 30 min at 4° C. After washing, bound antibodies were detected with a secondary anti-human IgG Fc PE-labelled for 30 min at 4° C. Fluorescence intensity was measured by flow cytometry. Equilibrium dissociation constant (kD) was then calculated for each antibody using median MFI normalized over isotype control.

[7] = target: T1, human TREM2; experiment: flow cytometry, M2a-like macrophages
Method: as §3, §4

[8] = target: T2, cynomolgus TREM2; experiment: MFI on CHO cells over-expressing cynoTREM2-DAP12
Method: as §2

[9] = target: T1, human TREM2; experiment: flow cytometry, competition with LDL-Alexafluor-488 on CHO cells overexpressing human TREM2/DAP12
Method: Exemplary anti-TREM2 antibodies were tested in order to characterize their ability to enter in competition with TREM2 ligand, LDL, on CHO overexpressing human TREM2/DAP12. Antibodies (dose response curves from 66.65 nM to 0.07 nM) were incubated for 30 min with cells in a soluble fashion, followed by an incubation with LDL coupled with Alexafluor-488 (at 1 μg/mL final) for 30 min. Finally, after 2 washes, cells were acquired on flow cytometer. The median MFI of Alexafluor-488 was used to plot the graphs. Benchmark antibody MOR044746 was used as positive control.

[10] = target: T3, mouse TREM2; experiment: MFI on CT26 cells over-expressing mouse TREM2 and DAP12
Method: (§5) Cross-reactivity to mouse TREM2 was assessed using CT26 cells over-expressing mouse TREM2 and DAP12 (Table 23). Eight anti-TREM2 antibodies and both benchmark antibodies were considered cross-reactive to mouse TREM2 (MFI higher than isotype control and fold change of CT26-TREM2 over the CT26 Empty Vector higher than 5). The remaining anti-TREM2 antibodies were considered as being low to not cross-reactive (fold change less than 5). EOS006171 was not tested due to clear non-cross-reactivity preliminary data by octet (data not shown).

[11] = target: T3, mouse TREM2; experiment: MFI on CT26 cells over-expressing mouse TREM2 and DAP12 vs CT26 empty vector
Method: as §5

Fold over isotype control THP1 WT [1] [fold] | Stabilization ratio (Mean of 2 replicates) [2] [ratio] | MFI Fold change (THP-1 WT over THP-1 TREM2 KO) [3] [fold] | MFI Fold change (CHO-cTREM2 over CHO-EV) [4] [fold] | Fold over isotype control at 66 nM [5] [fold] | Kd [6] [nM] | Fold over isotype [7] [fold] | Binding to CHO-cTREM2 MFI [8] [MFI] | IC50 [9] [nM] | pSYK/TotSYK EC50 (nM) [5] [nM] | Binding to CT26-TREM2 MFI [10] [MFI] | MFI Fold change (CT26-TREM2 over CT26-EV) [11] [fold] | Binder
2.7 | 0.42 | 5.1 | 395 | 0.701 | 0.15 | 13 | 17700 | 0.169 | – | – | – | EOS006163 (antibody, V domains shown) VH: QVQLVQSGAEVKKPGSSVKVSCKASGGTFAQYAISWVRQAPGQGLEWMGVIIPDSGTANYAQKFQGRVTITADESTSTAYMELSSLRSEDTAVYYCARTQENTIFDIWGQGTMVTVSS VL: EIVLTQSPATLSLSPGERATLSCRASQSVSSYLAWFQQKPGQAPRLLIYDASNRATGIPARFSGSGSGTDFTLTISSLEPEDFAVYYCQQDYEWPITFGGGTKVEIK
6.6 | 0.46 | 4.3 | 495 | 2.4 | 2.8 | – | 13400 | – | 9.7 | – | – | EOS006171 (antibody, V domains shown) VH: QVQLVESGGGLVKPGGSLRLSCAASGFTFSDYYMSWIRQAPGKGLEWVSYISSSGSTIYYADSVKGRFTISRDNAKNSLYLQMNSLRAEDTAVYYCARLGGYYSLGPMDVWGQGTTVTVSS VL: EIVLTQSPATLSLSPGERATLSCRASQSVSSYLAWYQQKPGQAPRLLIYDASNRATGIPARFSGSGSGTDFTLTISSLEPEDFAVYYCQQDSAFPFTFGGGTKVEIK
– | – | – | 602 | – | – | – | 25500 | – | – | 8810 | 33.6 | Ab52 (antibody, V domains shown, benchmark anti-TREM2 antibody from WO2016023019A2) VH: QVQLVQSGAEVKKPGASVKVSCKASGYTFTSYYIHWVRQAPGQGLEWMGIINPSGGSTSYAQKFQGRVTMTRDTSTSTVYMELSSLRSEDTAVYYCAREADDSSGYPLGLDVWGQGTMVTVSS VL: EIVMTQSPATLSVSPGERATLSCRASQSVSSNLAWYQQKPGQAPRLLIYGASTRATGIPARFSGSGSGTEFTLTISSLQSEDFAVYYCQQVNSLPPTFGGGTKVEIK
– | 0.96 | – | – | – | – | – | – | – | – | – | – | 14D3 (antibody, V domains shown) VH: EVKLLEFGGGLVQPGGSMRLSCAASGFTFTDFYMNWIRQPAGRAPEWLGLIRNKTKGYTTEYNRSVKGRFTISRDNTQNMLYLQMNSLRPEDTATYYCARIGVNNGGSLDYWGQGVMVTVSS VL: DILIIQSPASLTVSAGARVTMSCKSSQSLLYSENNQDYLAWYQQKPGQFPKLLIYGASNRHTGVPDRFTGSGSGTDFTLTISSVQAEDLADYYCEQTYSYPYTFGAGTKLELK
– | – | – | – | 1.93 | – | – | – | – | 1.29 | – | – | 6E7 (antibody, V domains shown) VH: EVQLVQSGAEVKKPGESLKISCKGSGYSFTSYWIAWVRQMPGKGLEWMGIIYPGDSDTRYSPSFQGQVTISADKSISTAYLQWSSLKASDTAMYFCARQRTFYYDSSDYFDYWGQGTLVTVSS VL: DIQMTQSPSSVSASVGDRVTITCRASQGISSWLAWYQQKPGKAPKLLIYAASSLQNGVPSRFSGSGSGTDFTLTISSLQPEDFATYFCQQADSFPRTFGQGTKLEIK
3.5 | 0.69 | 4.8 | 251 | 2.84 | – | 9.3 | 11900 | 0.28 | 1.09 | 4690 | 17.4 | EOS006181 (antibody, V domains shown) VH: EVQLVESGGGLVQPGRSLRLSCTASGFTFDDHAMSWFRQAPGKGLEWVGFIGSKAYGGTTEYTASVKGRFTISRDGSKSIAYLQMNSLKTEDTAVYYCARGKRYSYTYWTPAFDVWGQGTMVTVSS VL: DIQMTQSPSSLSASVGDRVTITCQASQDITNYLNWYQQKPGKAPKLLIYDASNLETGVPSRFSGSGSGTDFTFTISSLQPEDIATYYCQQYDSYLTFGGGTKVEIK
– | – | – | – | – | – | – | – | – | – | 6750 | 21 | PN-37012 (antibody, V domains shown, benchmark anti-TREM2 antibody from US20190309064) VH: EVQLLESGGGLVQPGGSLRLSCAASGFTFSNYYMAWVRQAPGKGLEWVSSLTNSGGSTYYADSVKGRFTISRDNSKNTLYLQMNSLRAEDTAVYYCTREWAGSGYFDYWGQGTLVTVSS VL: DIQMTQSPSSLSASVGDRVTITCKASQNVGNNLAWYQQKPGKAPKLLIYYTSNRFTGVPSRFSGSGSGTDFTLTISSLQPEDFATYYCQRIYNSPWTFGQGTKLEIK
2.7 | 0.6 | 3.4 | 388 | 2.65 | – | 13.1 | 20400 | – | 4.05 | 6340 | 15 | EOS006176 (antibody, V domains shown) VH: EVQLLESGGGLVQPGGSLRLSCAASGFTFSTHAMTWVRQAPGKGLEWVSAISANAGKTYYADSVKGRFTISRDNSKNTLYLQMNSLRAEDTAVYYCASLRGGYEVGPTFDSWGQGTLVTVSS VL: not shown
2.1 | 0.64 | 2.4 | 334 | 2.51 | – | 5.4 | 19700 | – | 3.89 | 6790 | 15.8 | EOS006178 (antibody, V domains shown) VH: EVQLLESGGGLVQPGGSLRLSCAASGFTFSNYGMGWVRQAPGKGLEWVSAISANAGKTYYADSVKGRFTISRDNSKNTLYLQMNSLRAEDTAVYYCASLRGGYEVGPTFDPWGQGTLVTVSS VL: not shown
